Test results published in US20200031927A1.

Assays:
[1] = target: soluble KIR3DL1*001-Fc (human) (UniProt P43629); assay: SPR (BIACORE T-100)
[2] = target: soluble KIR3DL1*002-Fc (human) (UniProt P43629); assay: SPR (BIACORE T-100)
[3] = target: soluble KIR3DL1*033-Fc (human) (UniProt P43629); assay: SPR (BIACORE T-100)
[4] = target: soluble KIR3DL1*002-Fc (human) (UniProt P43629); assay: SPR (BIACORE T-100), kinetics

soluble KIR3DL1*002-Fc (human), sequence (P43629 other isoform, or with tags, fused parts or gaps): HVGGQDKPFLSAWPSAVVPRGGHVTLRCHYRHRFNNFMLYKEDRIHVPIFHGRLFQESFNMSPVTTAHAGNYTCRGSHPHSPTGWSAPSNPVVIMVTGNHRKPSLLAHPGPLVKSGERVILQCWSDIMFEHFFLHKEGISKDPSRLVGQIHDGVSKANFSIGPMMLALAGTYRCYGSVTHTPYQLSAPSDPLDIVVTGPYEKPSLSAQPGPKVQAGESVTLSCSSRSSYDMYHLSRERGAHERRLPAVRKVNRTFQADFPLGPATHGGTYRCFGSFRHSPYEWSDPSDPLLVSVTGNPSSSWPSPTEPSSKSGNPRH
soluble KIR3DL1*033-Fc (human), sequence (P43629 other isoform, or with tags, fused parts or gaps): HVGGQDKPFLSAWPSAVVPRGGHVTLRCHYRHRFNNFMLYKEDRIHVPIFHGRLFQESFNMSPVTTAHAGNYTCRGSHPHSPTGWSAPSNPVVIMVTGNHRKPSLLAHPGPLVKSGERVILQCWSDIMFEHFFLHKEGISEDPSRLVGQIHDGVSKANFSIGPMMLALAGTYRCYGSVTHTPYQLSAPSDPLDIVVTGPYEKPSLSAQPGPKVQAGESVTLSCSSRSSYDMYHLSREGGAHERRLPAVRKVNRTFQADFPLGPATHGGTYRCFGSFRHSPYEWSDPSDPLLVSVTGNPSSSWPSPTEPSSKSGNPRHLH

Kd [1]: 14.1 nM | Kd [2]: 30.6 nM | Kd [3]: 8.6 nM | Kd [4]: 30.6 nM | koff [4]: 0.000992 s⁻¹ | kon [4]: 32400 M⁻¹ s⁻¹
Substance: DX9 (PHB4385) (antibody)
